Measured values from paper PMC12098869, “An mRNA-display derived cyclic peptide scaffold reveals the substrate binding interactions of an N-terminal cysteine oxidase” (Nature Communications, 2025).
Values joined by “and” are separate entries in the source; they are usually repeats but may differ in a detail not shown here. Equal values may be shown once.

How the values were obtained:
Assay in all cases: SPR; biotinylated ADO or ADO mutant immobilised on a Biotin CAP chip (~2500-3000 RU), substrate peptide injected; Biacore T200, 4 °C; 20 mM HEPES pH 7.5, 500 mM NaCl, 10 mM DTT, 0.1% tween-20; 50 µL/minute; multi-cycle or single-cycle mode not given; each cell is one of three independent measurements
Conditions in all cases: both partners purified
[1] = biological target: T1, ADO-Y87F, N-terminally His-tagged and biotinylated (human, UniProt Q96SZ5 1-270, Y87F, biotin (biotinylated during expression))
T1 construct: 2-aminoethanethiol dioxygenase (ADO), human, UniProt Q96SZ5, full length, site-directed mutant; source: E. coli Rosetta2(DE3), purified (Ni-NTA, SEC); not shown: biotinylation tag (from the vector pQE80L-Navi), N-terminal, kept
T1 sequence (looked up): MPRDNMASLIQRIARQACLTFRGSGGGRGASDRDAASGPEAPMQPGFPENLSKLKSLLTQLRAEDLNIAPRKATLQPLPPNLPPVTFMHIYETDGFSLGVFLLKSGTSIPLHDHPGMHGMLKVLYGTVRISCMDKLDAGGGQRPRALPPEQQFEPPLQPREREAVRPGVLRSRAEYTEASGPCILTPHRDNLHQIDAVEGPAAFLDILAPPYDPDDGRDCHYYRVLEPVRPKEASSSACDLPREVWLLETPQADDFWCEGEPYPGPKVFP

[2] = biological target: T2, ADO-Y212A, N-terminally His-tagged and biotinylated (human, UniProt Q96SZ5 1-270, Y212A, biotin (biotinylated during expression))
T2 construct: 2-aminoethanethiol dioxygenase (ADO), human, UniProt Q96SZ5, full length, site-directed mutant; source: E. coli Rosetta2(DE3), purified (Ni-NTA, SEC); not shown: biotinylation tag (from the vector pQE80L-Navi), N-terminal, kept
T2 sequence (looked up): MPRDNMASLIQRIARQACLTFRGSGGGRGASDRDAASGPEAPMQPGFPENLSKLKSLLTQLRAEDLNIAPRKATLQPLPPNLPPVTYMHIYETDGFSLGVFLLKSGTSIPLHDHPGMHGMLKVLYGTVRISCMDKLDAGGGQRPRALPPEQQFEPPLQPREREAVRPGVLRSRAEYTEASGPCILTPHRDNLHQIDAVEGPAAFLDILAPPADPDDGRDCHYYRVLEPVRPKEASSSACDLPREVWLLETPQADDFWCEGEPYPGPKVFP

[3] = biological target: T3, ADO-Y212F, N-terminally His-tagged and biotinylated (human, UniProt Q96SZ5 1-270, Y212F, biotin (biotinylated during expression))
T3 construct: 2-aminoethanethiol dioxygenase (ADO), human, UniProt Q96SZ5, full length, site-directed mutant; source: E. coli Rosetta2(DE3), purified (Ni-NTA, SEC); not shown: biotinylation tag (from the vector pQE80L-Navi), N-terminal, kept
T3 sequence (looked up): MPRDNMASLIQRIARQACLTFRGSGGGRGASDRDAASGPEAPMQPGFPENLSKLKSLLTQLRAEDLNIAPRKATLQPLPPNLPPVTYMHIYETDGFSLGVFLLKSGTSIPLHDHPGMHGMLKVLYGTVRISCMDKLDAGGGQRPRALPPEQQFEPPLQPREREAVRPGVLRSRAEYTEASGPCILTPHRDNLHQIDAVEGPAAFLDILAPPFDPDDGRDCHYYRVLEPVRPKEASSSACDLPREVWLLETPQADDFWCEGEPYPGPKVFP

[4] = biological target: T4, ADO-Y222A, N-terminally His-tagged and biotinylated (human, UniProt Q96SZ5 1-270, Y222A, biotin (biotinylated during expression))
T4 construct: 2-aminoethanethiol dioxygenase (ADO), human, UniProt Q96SZ5, full length, site-directed mutant; source: E. coli Rosetta2(DE3), purified (Ni-NTA, SEC); not shown: biotinylation tag (from the vector pQE80L-Navi), N-terminal, kept
T4 sequence (looked up): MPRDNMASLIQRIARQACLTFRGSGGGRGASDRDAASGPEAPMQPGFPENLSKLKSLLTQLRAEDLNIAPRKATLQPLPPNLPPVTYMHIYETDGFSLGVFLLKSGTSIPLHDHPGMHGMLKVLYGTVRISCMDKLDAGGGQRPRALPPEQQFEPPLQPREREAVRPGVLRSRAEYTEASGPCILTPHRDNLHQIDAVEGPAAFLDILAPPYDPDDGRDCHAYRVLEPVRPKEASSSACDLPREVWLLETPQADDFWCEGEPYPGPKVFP

[5] = biological target: T5, ADO-Y87A, N-terminally His-tagged and biotinylated (human, UniProt Q96SZ5 1-270, Y87A, biotin (biotinylated during expression))
T5 construct: 2-aminoethanethiol dioxygenase (ADO), human, UniProt Q96SZ5, full length, site-directed mutant; source: E. coli Rosetta2(DE3), purified (Ni-NTA, SEC); not shown: biotinylation tag (from the vector pQE80L-Navi), N-terminal, kept
T5 sequence (looked up): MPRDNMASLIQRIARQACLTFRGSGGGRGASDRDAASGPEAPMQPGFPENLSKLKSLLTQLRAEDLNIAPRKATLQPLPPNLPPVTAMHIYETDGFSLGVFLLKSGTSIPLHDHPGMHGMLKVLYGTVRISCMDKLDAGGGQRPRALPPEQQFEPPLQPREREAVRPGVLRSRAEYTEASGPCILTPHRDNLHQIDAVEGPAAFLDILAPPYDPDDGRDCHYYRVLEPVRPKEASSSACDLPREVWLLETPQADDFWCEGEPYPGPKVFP

Kd [1]: 339 nM (2×) and 336 nM | Kd [2]: 66.5 µM and 90.3 µM and 63.1 µM | Kd [3]: 19.9 µM and 24.5 µM and 29.2 µM | Kd [4]: 4.42 µM and 4.8 µM and 4.78 µM | Kd [5]: 1.48 µM and 1.65 µM and 1.84 µM
B1: RGS5(2-15), synthetic peptide corresponding to the methionine excised N-terminus of RGS5, residues 2 to 15 (peptide, UniProt O15539 2-15, looked up)
peptide: CKGLAALPHSCLER
notes: regulator of G-protein signalling 5 (RGS5), residues 2 to 15 (N-terminal Cys exposed); UniProt O15539 is printed for the full-length human protein; also called 14-mer RGS5; source: synthetic peptide
